This data set concerns Escherichia coli TOP10. In words: shrunken log2 fold change of peptide-encoding DNA abundance (4.5 h post-induction vs induction); higher = less antimicrobial activity (less host growth inhibition). Conditions: time post-induction: 4.5 h; library: site-saturation at positions 5, 18, 19, 20.
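Note: peptides expressed intracellularly from a pBAD plasmid library in pooled LB shake-flask culture, induced with 0.3% L-arabinose, DNA abundance read by NGS, three biological replicates, DESeq2 with apeglm shrinkage.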

Take RRIRIRPPRLPRPRPRPKSDPRP: the “shrunken log2 fold change” value is -0.222. The result for RRIRVRPPRLPRPRPRPISQPRP reads -0.261.

Turning to RRIRTRPPRLPRPRPRPFHWPRP, the “shrunken log2 fold change” value turned out to be 0.036. The result for RRIRWRPPRLPRPRPRPCIVPRP reads 0.0112; that for RRIRCRPPRLPRPRPRPAWGPRP, 0.193; that for RRIRPRPPRLPRPRPRPQGRPRP, -0.0433.

For RRIRCRPPRLPRPRPRPELLPRP, the “shrunken log2 fold change” value was -0.0954.

On to RRIRCRPPRLPRPRPRPKNDPRP, for which the “shrunken log2 fold change” value is -0.048. The result for RRIRFRPPRLPRPRPRPTMCPRP reads -0.274; that for RRIRNRPPRLPRPRPRPTNEPRP, 0.239. The result for RRIRWRPPRLPRPRPRPLIKPRP reads 0.114; that for RRIRSRPPRLPRPRPRPYIHPRP, -0.737; that for RRIRQRPPRLPRPRPRPKKAPRP, -0.15. For RRIRNRPPRLPRPRPRPMINPRP, the “shrunken log2 fold change” value was -0.346.

RRIRERPPRLPRPRPRPTYGPRP: the “shrunken log2 fold change” value amounted to 0.158. For RRIRIRPPRLPRPRPRPTNGPRP the value was -0.166; for RRIRTRPPRLPRPRPRPSTTPRP, -0.0853.

Take RRIRNRPPRLPRPRPRPATCPRP: the “shrunken log2 fold change” value was -0.00428. With RRIRDRPPRLPRPRPRPSNCPRP, the “shrunken log2 fold change” value was -0.576. The result for RRIRNRPPRLPRPRPRPWIWPRP reads -0.151; that for RRIRQRPPRLPRPRPRPGTKPRP, 0.0136. The result for RRIRDRPPRLPRPRPRPAPHPRP reads 0.852; that for RRIRGRPPRLPRPRPRPASIPRP, 0.371; that for RRIRRRPPRLPRPRPRPTSNPRP, 0.123. For RRIRKRPPRLPRPRPRPRIHPRP the value was -0.0869; for RRIRERPPRLPRPRPRPVDLPRP, -0.103; for RRIRKRPPRLPRPRPRPGECPRP, 0.381. As to RRIRWRPPRLPRPRPRPMNPPRP, the “shrunken log2 fold change” value was -0.153. The result for RRIRGRPPRLPRPRPRPGYVPRP reads -0.00987; that for RRIRIRPPRLPRPRPRPNEPPRP, -0.0172; that for RRIRIRPPRLPRPRPRPDPYPRP, -0.555.

RRIRIRPPRLPRPRPRPNTAPRP: the “shrunken log2 fold change” value is -0.0523. As for RRIRGRPPRLPRPRPRPMKKPRP, the “shrunken log2 fold change” value turned out to be 1.17. For RRIRARPPRLPRPRPRPWVNPRP the value was -0.246; for RRIRVRPPRLPRPRPRPKAVPRP, 0.0112. For RRIRVRPPRLPRPRPRPFISPRP the value was -0.11. For RRIRTRPPRLPRPRPRPCPEPRP the value was -0.0641; for RRIRARPPRLPRPRPRPYLLPRP, -0.76.

For RRIRQRPPRLPRPRPRPCEMPRP, the “shrunken log2 fold change” value was -0.00121. For RRIRHRPPRLPRPRPRPQTDPRP the value was -1.36; for RRIRPRPPRLPRPRPRPCQIPRP, -0.0156. As for RRIRMRPPRLPRPRPRPEWSPRP, the “shrunken log2 fold change” value was found to be 0.721.

As for RRIRVRPPRLPRPRPRPTFPPRP, the “shrunken log2 fold change” value was 0.0553. RRIRDRPPRLPRPRPRPPSFPRP: the “shrunken log2 fold change” value was found to be 0.155.

For the sequence RRIRMRPPRLPRPRPRPPKTPRP, the “shrunken log2 fold change” value came to 0.891. The result for RRIRIRPPRLPRPRPRPASDPRP reads -0.077; that for RRIRMRPPRLPRPRPRPPCCPRP, 0.928; that for RRIRRRPPRLPRPRPRPNQEPRP, -0.0479. The result for RRIRPRPPRLPRPRPRPWTCPRP reads -0.0575. The result for RRIRVRPPRLPRPRPRPDNQPRP reads -0.0991.

The values are drawn from the supplement of paper PMC9112550, “Optimization of the antimicrobial peptide Bac7 by deep mutational scanning” (BMC Biology, 2022).
